According to article PMC5132288, “Identification, Heterologous Expression, and Functional Characterization of Bacillus subtilis YutF, a HAD Superfamily 5'-Nucleotidase with Broad Substrate Specificity” (PLoS ONE, 2016):

Experiments:
Type in all cases: biochemical, Bacillus subtilis
[1] = substrate: O=P(O)(O)OC[C@H]1O[C@H](OP(=O)(O)OP(=O)(O)O)[C@H](O)[C@@H]1O; assay: colorimetric inorganic phosphate release, nonlinear regression; conditions: 100 mM MES pH 6.0, 5 mM MgCl2, 37°C
Text: (§1) colorimetric inorganic phosphate release, nonlinear regression on Ht-YutF (recombinant YutF, N-terminal hexahistidine tag)

[2] = substrate: O=c1[nH]c(=O)c2ncn([C@@H]3O[C@H](COP(=O)(O)O)[C@@H](O)[C@H]3O)c2[nH]1; assay: as above; conditions: 100 mM MES pH 6.0, 5 mM MgCl2, 37°C
Text: as §1

[3] = substrate: Nc1nc2c(ncn2[C@@H]2O[C@H](COP(=O)(O)O)[C@@H](O)[C@H]2O)c(=O)[nH]1; assay: as above; conditions: 100 mM MES pH 6.0, 5 mM MgCl2, 37°C
Text: as §1

purified protein = substrate: O=[N+]([O-])c1ccc(OP(=O)(O)O)cc1; assay: purified protein; conditions: 100 mM Tris-HCl pH 8.9, 5 mM MgCl2, 25°C

B1: Ht-YutF (recombinant YutF, N-terminal hexahistidine tag) (Bacillus subtilis subsp. subtilis str. 168) (protein)
chain: KTYKGYLIDLDGTMYNGTEKIEEACEFVRTLKDRGVPYLFVTNNSSRTPKQVADKLVSFDIPATEEQVFTTSMATAQHIAQQKKDASVYVIGEEGIRQAIEENGLTFGGENADFVVVGIDRSITYEKFAVGCLAIRNGARFISTNGDIAIPTERGLLPGNGSLTSVLTVSTGVQPVFIGKPESIIMEQAMRVLGTDVSETLMVGDNYATDIMAGINAGMDTLLVHTGVTKREHMTDDMEKPTHAIDSLTEWIPYI
- Km [1]: 1270 ± 100 µM
- kcat [1]: 0.17 ± 0.01 s⁻¹
- kcat/Km [1]: 130 M⁻¹ s⁻¹
- Km [2]: 1530 ± 110 µM
- kcat [2]: 0.31 ± 0.01 s⁻¹
- kcat/Km [2]: 210 M⁻¹ s⁻¹
- Km [3]: 6650 ± 1260 µM
- kcat [3]: 0.06 ± 0.01 s⁻¹
- kcat/Km [3]: 9 M⁻¹ s⁻¹
- Km (purified protein): 1640 ± 60 µM
- kcat (purified protein): 61 ± 1 s⁻¹
- kcat/Km (purified protein): 37000 M⁻¹ s⁻¹
